{"source": "paper PMC9482650", "about": "“Quantitative fragmentomics allow affinity mapping of interactomes” (Nature Communications, 2022)", "assay_in_all_cases": "holdup assay", "parameters_in_all_cases": "key: below the threshold = too weak to quantify, mostly under pKd 3.1 to 4", "key": {"[1]": {"molecular_target": "T1, SHANK2, Q9UPX8", "T1 sequence (Q9UPX8 621-730, limits assumed, looked up)": "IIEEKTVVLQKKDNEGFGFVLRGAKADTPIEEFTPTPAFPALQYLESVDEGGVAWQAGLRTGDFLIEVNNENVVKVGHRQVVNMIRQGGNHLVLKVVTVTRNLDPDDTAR"}, "[2]": {"molecular_target": "PDZRN4_2, Q6ZMN7", "sequence (Q6ZMN7 389-498)": "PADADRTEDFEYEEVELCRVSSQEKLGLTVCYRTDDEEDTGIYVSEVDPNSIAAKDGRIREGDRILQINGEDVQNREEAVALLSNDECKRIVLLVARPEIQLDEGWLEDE"}, "[3]": {"molecular_target": "MAGI3_4, Q5TCQ9", "sequence (Q5TCQ9 716-815)": "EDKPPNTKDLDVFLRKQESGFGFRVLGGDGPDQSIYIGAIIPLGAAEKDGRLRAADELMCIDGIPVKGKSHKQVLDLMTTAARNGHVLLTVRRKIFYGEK"}, "[4]": {"molecular_target": "T2, PDZD2_5, O15018", "T2 sequence (O15018 2617-2716, limits assumed, looked up)": "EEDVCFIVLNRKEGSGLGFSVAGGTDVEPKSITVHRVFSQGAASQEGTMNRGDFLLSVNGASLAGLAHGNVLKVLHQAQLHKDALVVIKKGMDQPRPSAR"}, "[5]": {"molecular_target": "RGS3, P49796-9", "sequence (P49796 other isoform, or with tags, fused parts or gaps)": "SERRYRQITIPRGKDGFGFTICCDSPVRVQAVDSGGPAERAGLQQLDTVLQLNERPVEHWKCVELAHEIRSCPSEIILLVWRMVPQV"}, "[6]": {"molecular_target": "T3, USH1C_1, Q9Y6N9", "T3 sequence (Q9Y6N9 82-179, limits assumed, looked up)": "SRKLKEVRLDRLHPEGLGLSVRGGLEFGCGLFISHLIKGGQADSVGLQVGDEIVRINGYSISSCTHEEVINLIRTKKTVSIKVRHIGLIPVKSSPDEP"}, "[7]": {"molecular_target": "T4, SHROOM3, Q8TF72", "T4 sequence (Q8TF72 20-120, limits assumed, looked up)": "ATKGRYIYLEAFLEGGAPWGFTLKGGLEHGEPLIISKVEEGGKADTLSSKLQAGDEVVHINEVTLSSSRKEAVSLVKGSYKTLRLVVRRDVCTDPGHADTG"}, "[8]": {"molecular_target": "PARD3B_3, Q8TEW8", "sequence (Q8TEW8 490-594)": "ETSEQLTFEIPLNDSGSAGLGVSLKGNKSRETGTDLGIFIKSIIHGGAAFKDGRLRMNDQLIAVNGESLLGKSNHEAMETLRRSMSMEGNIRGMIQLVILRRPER"}, "[9]": {"molecular_target": "T5, PDZD2_6, O15018", "T5 sequence (O15018 2745-2839, limits assumed, looked up)": "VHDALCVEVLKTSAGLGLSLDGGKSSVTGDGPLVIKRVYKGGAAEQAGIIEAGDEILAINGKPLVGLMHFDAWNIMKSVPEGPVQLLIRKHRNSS"}, "[10]": {"molecular_target": "T6, DVL1, O14640", "T6 sequence (O14640 246-333, limits assumed, looked up)": "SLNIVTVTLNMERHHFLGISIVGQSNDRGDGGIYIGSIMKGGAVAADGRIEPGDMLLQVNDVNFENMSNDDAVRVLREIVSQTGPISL"}, "[11]": {"molecular_target": "PREX1_1, Q8TCU6", "sequence (Q8TCU6 608-718)": "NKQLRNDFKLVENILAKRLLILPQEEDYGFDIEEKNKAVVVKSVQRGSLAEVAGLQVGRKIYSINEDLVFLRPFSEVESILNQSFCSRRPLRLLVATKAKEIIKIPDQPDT"}, "[12]": {"molecular_target": "T7, USH1C_2, Q9Y6N9", "T7 sequence (Q9Y6N9 206-303, limits assumed, looked up)": "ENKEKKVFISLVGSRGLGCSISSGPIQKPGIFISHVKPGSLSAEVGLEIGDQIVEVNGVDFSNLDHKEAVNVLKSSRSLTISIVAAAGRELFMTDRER"}, "[13]": {"molecular_target": "IL16_2, Q14005", "sequence (Q14005 350-450)": "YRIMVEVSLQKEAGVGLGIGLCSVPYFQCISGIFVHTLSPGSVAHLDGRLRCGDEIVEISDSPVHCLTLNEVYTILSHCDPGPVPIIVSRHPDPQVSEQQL"}, "[14]": {"molecular_target": "T8, PDZD2_4, O15018", "T8 sequence (O15018 723-823, limits assumed, looked up)": "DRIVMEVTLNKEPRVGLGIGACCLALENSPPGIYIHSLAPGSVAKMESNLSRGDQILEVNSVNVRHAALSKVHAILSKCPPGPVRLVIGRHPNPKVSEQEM"}, "[15]": {"molecular_target": "T9, SHROOM2, Q13796", "T9 sequence (Q13796 21-118, limits assumed, looked up)": "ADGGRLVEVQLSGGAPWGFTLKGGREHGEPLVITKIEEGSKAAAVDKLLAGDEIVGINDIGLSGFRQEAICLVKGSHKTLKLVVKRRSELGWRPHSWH"}, "[16]": {"molecular_target": "NHERF2_1, Q15599", "sequence (Q15599 9-91)": "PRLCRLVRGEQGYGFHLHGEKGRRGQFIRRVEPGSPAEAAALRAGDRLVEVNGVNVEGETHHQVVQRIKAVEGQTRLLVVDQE"}, "[17]": {"molecular_target": "T10, PDZRN3_2, Q9UPQ7", "T10 sequence (Q9UPQ7 414-513, limits assumed, looked up)": "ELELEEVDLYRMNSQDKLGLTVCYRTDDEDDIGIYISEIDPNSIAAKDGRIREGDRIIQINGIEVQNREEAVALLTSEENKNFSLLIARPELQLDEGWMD"}, "[18]": {"molecular_target": "T11, MPDZ_7, O75970", "T11 sequence (O75970 1146-1253, limits assumed, looked up)": "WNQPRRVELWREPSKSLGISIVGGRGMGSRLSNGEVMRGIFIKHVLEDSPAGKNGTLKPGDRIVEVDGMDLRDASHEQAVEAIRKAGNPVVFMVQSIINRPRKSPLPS"}, "[19]": {"molecular_target": "MAGI1_6, Q96QZ7", "sequence (Q96QZ7 1146-1238)": "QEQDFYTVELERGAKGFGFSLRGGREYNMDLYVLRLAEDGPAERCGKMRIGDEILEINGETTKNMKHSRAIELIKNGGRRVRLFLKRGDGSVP"}, "[20]": {"molecular_target": "MAGI3_6, Q5TCQ9", "sequence (Q5TCQ9 1014-1103)": "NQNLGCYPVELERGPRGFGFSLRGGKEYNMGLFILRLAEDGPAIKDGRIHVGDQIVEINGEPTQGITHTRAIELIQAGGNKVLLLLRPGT"}, "[21]": {"molecular_target": "MAGI1_5, Q96QZ7", "sequence (Q96QZ7 986-1098)": "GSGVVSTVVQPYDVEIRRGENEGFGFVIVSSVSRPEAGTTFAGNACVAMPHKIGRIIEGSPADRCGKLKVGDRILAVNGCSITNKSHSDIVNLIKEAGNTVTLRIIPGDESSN"}, "[22]": {"molecular_target": "T12, PDZD2_3, O15018", "T12 sequence (O15018 581-682, limits assumed, looked up)": "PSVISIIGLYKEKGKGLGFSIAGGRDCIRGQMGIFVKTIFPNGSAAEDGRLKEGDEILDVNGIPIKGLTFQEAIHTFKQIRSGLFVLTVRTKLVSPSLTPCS"}, "[23]": {"molecular_target": "T13, MPDZ_11, O75970", "T13 sequence (O75970 1720-1817, limits assumed, looked up)": "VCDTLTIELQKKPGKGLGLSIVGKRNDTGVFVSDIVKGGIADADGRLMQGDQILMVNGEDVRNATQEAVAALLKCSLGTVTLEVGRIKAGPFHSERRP"}, "[24]": {"conditions": "modified: acetyl on K at position -1 from the C-terminal residue"}, "[25]": {"conditions": "modified: phospho on S at position -3 from the C-terminal residue"}, "[26]": {"conditions": "plain residues with an end cap or a label only (N-terminal biotin on a linker: (peg)3)"}}}
{"binder": "DEDQHTQITKV", "note": "[PTEN_Ac, P60484]", "values": [{"measurement": "pKd", "setting": "[1]; [24]", "value": 3.97}, {"measurement": "pKd", "setting": "[2]; [24]", "value": "below the threshold"}, {"measurement": "pKd", "setting": "[3]; [24]", "value": "below the threshold"}, {"measurement": "pKd", "setting": "[4]; [24]", "value": "below the threshold"}, {"measurement": "pKd", "setting": "[5]; [24]", "value": "below the threshold"}, {"measurement": "pKd", "setting": "[6]; [24]", "value": "below the threshold"}, {"measurement": "pKd", "setting": "[7]; [24]", "value": "below the threshold"}, {"measurement": "pKd", "setting": "[8]; [24]", "value": "below the threshold"}, {"measurement": "pKd", "setting": "[9]; [24]", "value": "below the threshold"}, {"measurement": "pKd", "setting": "[10]; [24]", "value": "below the threshold"}, {"measurement": "pKd", "setting": "[11]; [24]", "value": "below the threshold"}, {"measurement": "pKd", "setting": "[12]; [24]", "value": "below the threshold"}, {"measurement": "pKd", "setting": "[13]; [24]", "value": "below the threshold"}, {"measurement": "pKd", "setting": "[14]; [24]", "value": "below the threshold"}, {"measurement": "pKd", "setting": "[15]; [24]", "value": "below the threshold"}, {"measurement": "pKd", "setting": "[16]; [24]", "value": "below the threshold"}, {"measurement": "pKd", "setting": "[17]; [24]", "value": "below the threshold"}, {"measurement": "pKd", "setting": "[18]; [24]", "value": 4.8}, {"measurement": "pKd", "setting": "[19]; [24]", "value": "below the threshold"}, {"measurement": "pKd", "setting": "[20]; [24]", "value": 4.08}, {"measurement": "pKd", "setting": "[21]; [24]", "value": 4.84}, {"measurement": "pKd", "setting": "[22]; [24]", "value": "below the threshold"}, {"measurement": "pKd", "setting": "[23]; [24]", "value": 3.78}]}
{"binder": "RRVRKLPSTTL", "note": "[RPS6KA1_-3P, Q15418]", "values": [{"measurement": "pKd", "setting": "[1]; [25]", "value": "below the threshold"}, {"measurement": "pKd", "setting": "[2]; [25]", "value": "below the threshold"}, {"measurement": "pKd", "setting": "[3]; [25]", "value": "below the threshold"}, {"measurement": "pKd", "setting": "[4]; [25]", "value": "below the threshold"}, {"measurement": "pKd", "setting": "[5]; [25]", "value": "below the threshold"}, {"measurement": "pKd", "setting": "[6]; [25]", "value": "below the threshold"}, {"measurement": "pKd", "setting": "[7]; [25]", "value": "below the threshold"}, {"measurement": "pKd", "setting": "[8]; [25]", "value": "below the threshold"}, {"measurement": "pKd", "setting": "[9]; [25]", "value": "below the threshold"}, {"measurement": "pKd", "setting": "[10]; [25]", "value": "below the threshold"}, {"measurement": "pKd", "setting": "[11]; [25]", "value": "below the threshold"}, {"measurement": "pKd", "setting": "[12]; [25]", "value": "below the threshold"}, {"measurement": "pKd", "setting": "[13]; [25]", "value": "below the threshold"}, {"measurement": "pKd", "setting": "[14]; [25]", "value": "below the threshold"}, {"measurement": "pKd", "setting": "[15]; [25]", "value": 3.71}, {"measurement": "pKd", "setting": "[16]; [25]", "value": "below the threshold"}, {"measurement": "pKd", "setting": "[17]; [25]", "value": 3.72}, {"measurement": "pKd", "setting": "[18]; [25]", "value": 3.63}, {"measurement": "pKd", "setting": "[19]; [25]", "value": "below the threshold"}, {"measurement": "pKd", "setting": "[20]; [25]", "value": "below the threshold"}, {"measurement": "pKd", "setting": "[21]; [25]", "value": "below the threshold"}, {"measurement": "pKd", "setting": "[22]; [25]", "value": "below the threshold"}, {"measurement": "pKd", "setting": "[23]; [25]", "value": "below the threshold"}]}
{"binder": "YDEPTTTTSVPL", "note": "[SARS-Cov2-3a, P0DTC3]", "values": [{"measurement": "pKd", "setting": "[1]; [26]", "value": "below the threshold"}, {"measurement": "pKd", "setting": "[2]; [26]", "value": "below the threshold"}, {"measurement": "pKd", "setting": "[3]; [26]", "value": "below the threshold"}, {"measurement": "pKd", "setting": "[4]; [26]", "value": "below the threshold"}, {"measurement": "pKd", "setting": "[5]; [26]", "value": 4.19}, {"measurement": "pKd", "setting": "[6]; [26]", "value": "below the threshold"}, {"measurement": "pKd", "setting": "[7]; [26]", "value": "below the threshold"}, {"measurement": "pKd", "setting": "[8]; [26]", "value": "below the threshold"}, {"measurement": "pKd", "setting": "[9]; [26]", "value": "below the threshold"}, {"measurement": "pKd", "setting": "[10]; [26]", "value": "below the threshold"}, {"measurement": "pKd", "setting": "[11]; [26]", "value": "below the threshold"}, {"measurement": "pKd", "setting": "[12]; [26]", "value": "below the threshold"}, {"measurement": "pKd", "setting": "[13]; [26]", "value": "below the threshold"}, {"measurement": "pKd", "setting": "[14]; [26]", "value": "below the threshold"}, {"measurement": "pKd", "setting": "[15]; [26]", "value": 3.81}, {"measurement": "pKd", "setting": "[16]; [26]", "value": "below the threshold"}, {"measurement": "pKd", "setting": "[17]; [26]", "value": "below the threshold"}, {"measurement": "pKd", "setting": "[18]; [26]", "value": "below the threshold"}, {"measurement": "pKd", "setting": "[19]; [26]", "value": "below the threshold"}, {"measurement": "pKd", "setting": "[20]; [26]", "value": "below the threshold"}, {"measurement": "pKd", "setting": "[21]; [26]", "value": 3.76}, {"measurement": "pKd", "setting": "[22]; [26]", "value": "below the threshold"}, {"measurement": "pKd", "setting": "[23]; [26]", "value": "below the threshold"}]}
